Tested on: Escherichia coli TOP10
Assay: shrunken log2 fold change of peptide-encoding DNA abundance (4.5 h post-induction vs induction); higher = less antimicrobial activity (less host growth inhibition)
Details: time post-induction: 4.5 h; library: site-saturation at positions 5, 18, 19, 20
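Further: peptides expressed intracellularly from a pBAD plasmid library in pooled LB shake-flask culture, induced with 0.3% L-arabinose, DNA abundance read by NGS, three biological replicates, DESeq2 with apeglm shrinkage.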

Row | Sequence | shrunken log2 fold change
1 | RRIRERPPRLPRPRPRPAKCPRP | -0.237
2 | RRIRGRPPRLPRPRPRPVFIPRP | 0.0618
3 | RRIRNRPPRLPRPRPRPCQWPRP | 0.0401
4 | RRIRTRPPRLPRPRPRPYPGPRP | -0.164
5 | RRIRARPPRLPRPRPRPTFEPRP | 0.42
6 | RRIRCRPPRLPRPRPRPAERPRP | -0.109
7 | RRIRCRPPRLPRPRPRPNIGPRP | -0.138
8 | RRIRPRPPRLPRPRPRPVTQPRP | 0.2
9 | RRIRLRPPRLPRPRPRPAMRPRP | 0.28
10 | RRIRLRPPRLPRPRPRPEIKPRP | -0.12
11 | RRIRYRPPRLPRPRPRPYVQPRP | -1.25
12 | RRIRQRPPRLPRPRPRPMMPPRP | 0.0665
13 | RRIRMRPPRLPRPRPRPHEWPRP | 0.624
14 | RRIRHRPPRLPRPRPRPFRGPRP | -0.254
15 | RRIRPRPPRLPRPRPRPREHPRP | 0.121
16 | RRIRPRPPRLPRPRPRPEAGPRP | 0.566
17 | RRIRLRPPRLPRPRPRPMKGPRP | 0.0527
18 | RRIRWRPPRLPRPRPRPFRTPRP | -0.16
19 | RRIRQRPPRLPRPRPRPVKEPRP | -0.0231
20 | RRIRHRPPRLPRPRPRPVKYPRP | -0.0563
21 | RRIRKRPPRLPRPRPRPLLDPRP | 0.246
22 | RRIRRRPPRLPRPRPRPDCKPRP | -0.176
23 | RRIRSRPPRLPRPRPRPCCNPRP | -0.0171
24 | RRIRVRPPRLPRPRPRPFNVPRP | -0.185
25 | RRIRVRPPRLPRPRPRPKGVPRP | 0.472

Row | Sequence | shrunken log2 fold change
26 | RRIRYRPPRLPRPRPRPWMTPRP | -0.663
27 | RRIRDRPPRLPRPRPRPSCPPRP | 0.00741
28 | RRIRSRPPRLPRPRPRPMPIPRP | -0.109
29 | RRIRIRPPRLPRPRPRPTDHPRP | -0.368
30 | RRIRNRPPRLPRPRPRPENSPRP | -0.00522
31 | RRIRQRPPRLPRPRPRPVPTPRP | 0.0766
32 | RRIRHRPPRLPRPRPRPYRRPRP | -0.142
33 | RRIRIRPPRLPRPRPRPYNKPRP | -0.783
34 | RRIRDRPPRLPRPRPRPDPKPRP | 0.189
35 | RRIRVRPPRLPRPRPRPTNWPRP | 0.202
36 | RRIRSRPPRLPRPRPRPAPTPRP | 0.732
37 | RRIRKRPPRLPRPRPRPTQLPRP | 0.65
38 | RRIRRRPPRLPRPRPRPCYWPRP | 0.00692
39 | RRIRIRPPRLPRPRPRPADTPRP | -0.347
40 | RRIRYRPPRLPRPRPRPYWPPRP | -0.0534
41 | RRIRLRPPRLPRPRPRPTQSPRP | 0.144
42 | RRIRVRPPRLPRPRPRPAAIPRP | -0.0826
43 | RRIRARPPRLPRPRPRPRNYPRP | 0.0668
44 | RRIRYRPPRLPRPRPRPRMTPRP | -0.131
45 | RRIRNRPPRLPRPRPRPPSHPRP | -0.301
46 | RRIRQRPPRLPRPRPRPDPQPRP | -0.159
47 | RRIRRRPPRLPRPRPRPVKNPRP | 0.148
48 | RRIRTRPPRLPRPRPRPQFMPRP | 0.0325
49 | RRIRMRPPRLPRPRPRPRSSPRP | 0.923
50 | RRIRARPPRLPRPRPRPGQPPRP | 0.00358

Row | Sequence | shrunken log2 fold change
51 | RRIRARPPRLPRPRPRPKLEPRP | 0.623
52 | RRIRNRPPRLPRPRPRPSTIPRP | 0.0179
53 | RRIRHRPPRLPRPRPRPTQHPRP | -0.0131
54 | RRIRIRPPRLPRPRPRPTSQPRP | -0.283
55 | RRIRTRPPRLPRPRPRPAASPRP | 0.169
56 | RRIRLRPPRLPRPRPRPMQPPRP | 0.303
57 | RRIRQRPPRLPRPRPRPYCTPRP | -0.863
58 | RRIRSRPPRLPRPRPRPCALPRP | -0.242
59 | RRIRIRPPRLPRPRPRPAYSPRP | -0.534
60 | RRIRMRPPRLPRPRPRPDTWPRP | 0.34
61 | RRIRARPPRLPRPRPRPEATPRP | 1.65
62 | RRIRWRPPRLPRPRPRPYHLPRP | -0.146
63 | RRIRTRPPRLPRPRPRPHWSPRP | -0.147
64 | RRIRNRPPRLPRPRPRPWFGPRP | -0.208
65 | RRIRHRPPRLPRPRPRPFSLPRP | -0.277
66 | RRIRQRPPRLPRPRPRPRGTPRP | 0.313
67 | RRIRRRPPRLPRPRPRPAEDPRP | 0.987
68 | RRIRPRPPRLPRPRPRPSCPPRP | -0.123
69 | RRIRDRPPRLPRPRPRPRNTPRP | -0.205
70 | RRIRYRPPRLPRPRPRPHFIPRP | -0.214
71 | RRIRRRPPRLPRPRPRPVAIPRP | 0.687
72 | RRIRHRPPRLPRPRPRPAWKPRP | -0.0109
73 | RRIRLRPPRLPRPRPRPDALPRP | -0.354
74 | RRIRDRPPRLPRPRPRPNEDPRP | 0.00355
75 | RRIRGRPPRLPRPRPRPKYTPRP | 0.101

Row | Sequence | shrunken log2 fold change
76 | RRIRFRPPRLPRPRPRPVLTPRP | -0.213
77 | RRIRQRPPRLPRPRPRPVNAPRP | 0.00432
78 | RRIRVRPPRLPRPRPRPQQTPRP | 0.0227
79 | RRIRYRPPRLPRPRPRPSTSPRP | 1.42
80 | RRIRCRPPRLPRPRPRPVWHPRP | 0.127
81 | RRIRKRPPRLPRPRPRPYKDPRP | -0.213
82 | RRIRRRPPRLPRPRPRPLGNPRP | -0.0268
83 | RRIRARPPRLPRPRPRPYKTPRP | -0.0275
84 | RRIRARPPRLPRPRPRPQWMPRP | 0.0371
85 | RRIRARPPRLPRPRPRPGRPPRP | 0.801
86 | RRIRARPPRLPRPRPRPQQRPRP | 0.199
87 | RRIRCRPPRLPRPRPRPVVWPRP | 0.354
88 | RRIRRRPPRLPRPRPRPVWRPRP | 0.436
89 | RRIRVRPPRLPRPRPRPLWSPRP | -0.0257
90 | RRIRSRPPRLPRPRPRPDNNPRP | -0.268
91 | RRIRGRPPRLPRPRPRPQDSPRP | 0.135
92 | RRIRDRPPRLPRPRPRPLGSPRP | 0.2
93 | RRIRIRPPRLPRPRPRPMAKPRP | -0.00776
94 | RRIRNRPPRLPRPRPRPTITPRP | -0.455
95 | RRIRMRPPRLPRPRPRPTPTPRP | 2
96 | RRIRHRPPRLPRPRPRPRSLPRP | 0.295
97 | RRIRMRPPRLPRPRPRPGCCPRP | 1.36
98 | RRIRERPPRLPRPRPRPEASPRP | -0.0341
99 | RRIRYRPPRLPRPRPRPKQIPRP | -0.456
100 | RRIRVRPPRLPRPRPRPVTKPRP | 0.261

Row | Sequence | shrunken log2 fold change
101 | RRIRVRPPRLPRPRPRPDPVPRP | -0.00845
102 | RRIRARPPRLPRPRPRPLGKPRP | 0.237
103 | RRIRVRPPRLPRPRPRPTVRPRP | 0.126
104 | RRIRYRPPRLPRPRPRPSEYPRP | -0.431
105 | RRIRNRPPRLPRPRPRPALQPRP | 0.234
106 | RRIRERPPRLPRPRPRPNYTPRP | -0.773
107 | RRIRVRPPRLPRPRPRPTKCPRP | -0.458
108 | RRIRYRPPRLPRPRPRPENVPRP | -0.00208
109 | RRIRMRPPRLPRPRPRPYGFPRP | -0.00952
110 | RRIRQRPPRLPRPRPRPRWAPRP | 0.144
111 | RRIRTRPPRLPRPRPRPREVPRP | 0.442
112 | RRIRSRPPRLPRPRPRPGGCPRP | 0.304
113 | RRIRNRPPRLPRPRPRPRGIPRP | -0.0954
114 | RRIRDRPPRLPRPRPRPRHFPRP | -0.0107
115 | RRIRKRPPRLPRPRPRPSNHPRP | -0.347
116 | RRIRHRPPRLPRPRPRPAEPPRP | 0.19
117 | RRIRPRPPRLPRPRPRPNSNPRP | -0.762
118 | RRIRLRPPRLPRPRPRPLVVPRP | -0.113
119 | RRIRMRPPRLPRPRPRPSEQPRP | -0.0153
120 | RRIRCRPPRLPRPRPRPVIKPRP | -0.0948
121 | RRIRKRPPRLPRPRPRPSMMPRP | 0.677
122 | RRIRTRPPRLPRPRPRPNYHPRP | -1.14
123 | RRIRDRPPRLPRPRPRPDTGPRP | 0.018
124 | RRIRERPPRLPRPRPRPRYCPRP | -0.516
125 | RRIRGRPPRLPRPRPRPRWSPRP | 0.754

From the supplement of paper PMC9112550, “Optimization of the antimicrobial peptide Bac7 by deep mutational scanning” (BMC Biology, 2022)
